Measurements as given in the supplement of paper PMC10724198.
± gives the standard deviation of the averaged measurements.

Columns and labels:
[1] = test system: Saccharomyces cerevisiae; assay: protein stability index of tFT-peptide fusion (C-terminal peptide) (PSI (0-1 scale)); higher = more stable (slower turnover)
Protocol: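 MPS profiling in S. cerevisiae of the tFT-X12 degron library: putative degron peptides plus stable controls, 12 aa, fused to the C-terminus of a sfGFP-mCherry timer. Cells are FACS-sorted into 8 mCherry/sfGFP bins and deep-sequenced. PSI runs from 0 (unstable) to 1 (stable). Backgrounds are wild type, das1Δ and doa10Δ at 30 °C, and wild type, das1Δ, cdc34-1 and cdc53-1 at 37 °C; 2-3 technical replicates each.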

[2] = test system: Saccharomyces cerevisiae; assay: as above; conditions: genetic background: wild type; temperature: 30 C
[3] = genetic background: cdc34-1, temperature: 37 C
[4] = genetic background: cdc53-1, temperature: 37 C
[5] = genetic background: das1 deletion, temperature: 30 C
[6] = genetic background: das1 deletion, temperature: 37 C
[7] = genetic background: doa10 deletion, temperature: 30 C
[8] = genetic background: wild type, temperature: 30 C
[9] = genetic background: wild type, temperature: 37 C
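Note: PSI is a weighted mean of sequencing reads over stability bins, variants kept only with over 10 reads, mCherry proximal and sfGFP distal, peptide attached via GGGS linker.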

## LFWWCMVFISLI
[1]; [3]
  protein stability index: 0.3069 ± 0.0013
[1]; [4]
  protein stability index: 0.37 ± 0.015
[1]; [5]
  protein stability index: 0.285 ± 0.041
[1]; [6]
  protein stability index: 0.413 ± 0.0096
[1]; [7]
  protein stability index: 0.212 ± 0.017
[1]; [8]
  protein stability index: 0.231 ± 0.029
[1]; [9]
  protein stability index: 0.3395 ± 0.00099
[2]
  protein stability index: 0.3 ± 0.019

## LFYVCPFVCFLC
[1]; [3]
  protein stability index: 0.554 ± 0.044
[1]; [4]
  protein stability index: 0.6288 ± 0.001
[1]; [5]
  protein stability index: 0.516 ± 0.017
[1]; [6]
  protein stability index: 0.61052 ± 9.9e-05
[1]; [7]
  protein stability index: 0.307 ± 0.0078
[1]; [8]
  protein stability index: 0.335 ± 0.026
[1]; [9]
  protein stability index: 0.438 ± 0.033
[2]
  protein stability index: 0.324 ± 0.058

## LGFFPSPVLCVF
[1]; [3]
  protein stability index: 0.104 ± 0.056
[1]; [4]
  protein stability index: 0.104 ± 0.027
[1]; [5]
  protein stability index: 0.197 ± 0.024
[1]; [6]
  protein stability index: 0.209 ± 0.0036
[1]; [7]
  protein stability index: 0.171 ± 0.0087
[1]; [8]
  protein stability index: 0.193 ± 0.018
[1]; [9]
  protein stability index: 0.175 ± 0.0038
[2]
  protein stability index: 0.275 ± 0.02

## LGGVGTLVHCFV
[1]; [3]
  protein stability index: 0.615 ± 0.026
[1]; [4]
  protein stability index: 0.635 ± 0.016
[1]; [5]
  protein stability index: 0.36 ± 0.022
[1]; [6]
  protein stability index: 0.607 ± 0.0081
[1]; [7]
  protein stability index: 0.351 ± 0.013
[1]; [8]
  protein stability index: 0.375 ± 0.014
[1]; [9]
  protein stability index: 0.597 ± 0.02
[2]
  protein stability index: 0.452 ± 0.053

## LGRYHPWLLFLC
[1]; [3]
  protein stability index: 0.261 ± 0.011
[1]; [4]
  protein stability index: 0.451 ± 0.021
[1]; [5]
  protein stability index: 0.457 ± 0.035
[1]; [6]
  protein stability index: 0.614 ± 0.0077
[1]; [7]
  protein stability index: 0.0687 ± 0.016
[1]; [8]
  protein stability index: 0.0711 ± 0.025
[1]; [9]
  protein stability index: 0.104 ± 0.0076
[2]
  protein stability index: 0.114 ± 0.027

## LHSDHLRIILRI
[1]; [3]
  protein stability index: 0.5966 ± 0.0013
[1]; [4]
  protein stability index: 0.63 ± 0.036
[1]; [5]
  protein stability index: 0.567 ± 0.036
[1]; [6]
  protein stability index: 0.659 ± 0.036
[1]; [7]
  protein stability index: 0.382 ± 0.018
[1]; [8]
  protein stability index: 0.376 ± 0.0098
[1]; [9]
  protein stability index: 0.576 ± 0.022
[2]
  protein stability index: 0.514 ± 0.023

## LIAGTRRIPLFI
[1]; [3]
  protein stability index: 0.593 ± 0.048
[1]; [4]
  protein stability index: 0.638 ± 0.022
[1]; [5]
  protein stability index: 0.515 ± 0.043
[1]; [6]
  protein stability index: 0.665 ± 0.0049
[1]; [7]
  protein stability index: 0.225 ± 0.0037
[1]; [8]
  protein stability index: 0.261 ± 0.053
[1]; [9]
  protein stability index: 0.466 ± 0.015
[2]
  protein stability index: 0.406 ± 0.039

## LISGVCLRVKVG
[1]; [3]
  protein stability index: 0.55 ± 0.031
[1]; [4]
  protein stability index: 0.597 ± 0.017
[1]; [5]
  protein stability index: 0.452 ± 0.029
[1]; [6]
  protein stability index: 0.6276 ± 0.00027
[1]; [7]
  protein stability index: 0.16 ± 0.016
[1]; [8]
  protein stability index: 0.193 ± 0.015
[1]; [9]
  protein stability index: 0.3637 ± 0.0019
[2]
  protein stability index: 0.346 ± 0.046

## LKFSLLLPVQVI
[1]; [3]
  protein stability index: 0.327 ± 0.014
[1]; [4]
  protein stability index: 0.3735 ± 0.0026
[1]; [5]
  protein stability index: 0.301 ± 0.03
[1]; [6]
  protein stability index: 0.403 ± 0.0053
[1]; [7]
  protein stability index: 0.253 ± 0.0088
[1]; [8]
  protein stability index: 0.283 ± 0.025
[1]; [9]
  protein stability index: 0.337 ± 0.0053
[2]
  protein stability index: 0.3606 ± 0.0013

## LLGHLFTMLVIY
[1]; [3]
  protein stability index: 0.211 ± 0.18
[1]; [4]
  protein stability index: 0.157 ± 0.023
[1]; [5]
  protein stability index: 0.286 ± 0.053
[1]; [6]
  protein stability index: 0.366 ± 0.0077
[1]; [7]
  protein stability index: 0.397 ± 0.0055
[1]; [8]
  protein stability index: 0.234 ± 0.019
[1]; [9]
  protein stability index: 0.311 ± 0.012
[2]
  protein stability index: 0.308 ± 0.014

## LLLLRCLWISHA
[1]; [3]
  protein stability index: 0.324 ± 0.053
[1]; [4]
  protein stability index: 0.441 ± 0.029
[1]; [5]
  protein stability index: 0.319 ± 0.039
[1]; [6]
  protein stability index: 0.5121 ± 0.0012
[1]; [7]
  protein stability index: 0.125 ± 0.019
[1]; [8]
  protein stability index: 0.145 ± 0.026
[1]; [9]
  protein stability index: 0.258 ± 0.0082
[2]
  protein stability index: 0.244 ± 0.015

## LLPLLFFFLCLP
[1]; [3]
  protein stability index: 0.592 ± 0.058
[1]; [4]
  protein stability index: 0.584 ± 0.0088
[1]; [5]
  protein stability index: 0.495 ± 0.035
[1]; [6]
  protein stability index: 0.5602 ± 0.0049
[1]; [7]
  protein stability index: 0.462 ± 0.006
[1]; [8]
  protein stability index: 0.452 ± 0.02
[1]; [9]
  protein stability index: 0.529 ± 0.014
[2]
  protein stability index: 0.4989 ± 0.0038

## LLPSPLLLYSLS
[1]; [3]
  protein stability index: 0.556 ± 0.03
[1]; [4]
  protein stability index: 0.578 ± 0.019
[1]; [5]
  protein stability index: 0.434 ± 0.022
[1]; [6]
  protein stability index: 0.6022 ± 0.0024
[1]; [7]
  protein stability index: 0.3814 ± 0.0018
[1]; [8]
  protein stability index: 0.412 ± 0.017
[1]; [9]
  protein stability index: 0.562 ± 0.015
[2]
  protein stability index: 0.451 ± 0.028

## LLRLCGFPLGVG
[1]; [3]
  protein stability index: 0.466 ± 0.027
[1]; [4]
  protein stability index: 0.54 ± 0.0086
[1]; [5]
  protein stability index: 0.488 ± 0.014
[1]; [6]
  protein stability index: 0.55 ± 0.0049
[1]; [7]
  protein stability index: 0.41 ± 0.014
[1]; [8]
  protein stability index: 0.4004 ± 0.002
[1]; [9]
  protein stability index: 0.51 ± 0.017
[2]
  protein stability index: 0.4497 ± 0.00073

## LLRLPLLALLFV
[1]; [3]
  protein stability index: 0.236 ± 0.028
[1]; [4]
  protein stability index: 0.227 ± 0.0089
[1]; [5]
  protein stability index: 0.233 ± 0.026
[1]; [6]
  protein stability index: 0.356 ± 0.0077
[1]; [7]
  protein stability index: 0.337 ± 0.02
[1]; [8]
  protein stability index: 0.222 ± 0.033
[1]; [9]
  protein stability index: 0.324 ± 0.016
[2]
  protein stability index: 0.111 ± 0.0047

## LLSAFPYLPVFA
[1]; [3]
  protein stability index: 0.277 ± 0.025
[1]; [4]
  protein stability index: 0.326 ± 0.048
[1]; [5]
  protein stability index: 0.251 ± 0.02
[1]; [6]
  protein stability index: 0.3941 ± 0.0035
[1]; [7]
  protein stability index: 0.2141 ± 0.00033
[1]; [8]
  protein stability index: 0.244 ± 0.022
[1]; [9]
  protein stability index: 0.373 ± 0.044
[2]
  protein stability index: 0.337 ± 0.0066

## LLVRSFIFPLVY
[1]; [3]
  protein stability index: 0.3906 ± 0.0039
[1]; [4]
  protein stability index: 0.428 ± 0.018
[1]; [5]
  protein stability index: 0.294 ± 0.053
[1]; [6]
  protein stability index: 0.482 ± 0.018
[1]; [7]
  protein stability index: 0.282 ± 0.016
[1]; [8]
  protein stability index: 0.289 ± 0.013
[1]; [9]
  protein stability index: 0.441 ± 0.012
[2]
  protein stability index: 0.367 ± 0.034

## LLVVGPVRLVVH
[1]; [3]
  protein stability index: 0.214 ± 0.019
[1]; [4]
  protein stability index: 0.259 ± 0.0027
[1]; [5]
  protein stability index: 0.201 ± 0.034
[1]; [6]
  protein stability index: 0.346 ± 0.017
[1]; [7]
  protein stability index: 0.168 ± 0.0078
[1]; [8]
  protein stability index: 0.18 ± 0.026
[1]; [9]
  protein stability index: 0.321 ± 0.012
[2]
  protein stability index: 0.262 ± 0.023

## LLYPSKFCITAI
[1]; [3]
  protein stability index: 0.506 ± 0.024
[1]; [4]
  protein stability index: 0.559 ± 0.03
[1]; [5]
  protein stability index: 0.413 ± 0.032
[1]; [6]
  protein stability index: 0.575 ± 0.016
[1]; [7]
  protein stability index: 0.248 ± 0.007
[1]; [8]
  protein stability index: 0.272 ± 0.027
[1]; [9]
  protein stability index: 0.431 ± 0.0044
[2]
  protein stability index: 0.374 ± 0.016

## LLYYMPELLILT
[1]; [3]
  protein stability index: 0.152 ± 0.0021
[1]; [4]
  protein stability index: 0.145 ± 0.028
[1]; [5]
  protein stability index: 0.208 ± 0.0081
[1]; [6]
  protein stability index: 0.273 ± 0.0049
[1]; [7]
  protein stability index: 0.242 ± 0.013
[1]; [8]
  protein stability index: 0.199 ± 0.025
[1]; [9]
  protein stability index: 0.264 ± 0.007
[2]
  protein stability index: 0.28 ± 0.018
